Source: PMC3099347 (Journal of molecular biology, 2011)

B1: Methanococcus jannaschii FKBP26 fragment 231-ΔIF (1-231Δ83-G-A-G-134) (domain or fragment)
chain: MVEKGKMVKISYDGYVDGKLFDTTNEELAKKEGIYNPAMIYGPVAIFAGEGQVLPGLDEAILEMDVGEEREVVLPPEKAFGKRGAGLAGKEVKYRIKIEEVVDDKKNIVKEIVKMYVPRLSDVKVTIRNGTVKIELPEFAPFIPNIQTAKMAIANEILKRLEDAEKVSFVETFERKKETKEENK
B2: Methanococcus jannaschii FKBP26, construct 231 (full-length, residues 1-231) (natural protein, UniProt Q58235 1-231, looked up)
chain: MVEKGKMVKISYDGYVDGKLFDTTNEELAKKEGIYNPAMIYGPVAIFAGEGQVLPGLDEAILEMDVGEEREVVLPPEKAFGKRDPSKIKLIPLSEFTKRGIKPIKGLTITIDGIPGKIVSINSGRVLVDFNHELAGKEVKYRIKIEEVVDDKKNIVKEIVKMYVPRLSDVKVTIRNGTVKIELPEFAPFIPNIQTAKMAIANEILKRLEDAEKVSFVETFERKKETKEENK

Molecular target: the molecule itself
Assay: SEC

Protein	stoichiometry N
B1	2
B2	2
